Laboratory results from patent US11840557B2, “Wnt7 variants capable of activating g-protein coupled receptor (Gpr)124/Reck/frizzled/lipoprotein receptor-related protein (LRP)-mediated Wnt signaling” (UNIVERSITÉ LIBRE DE BRUXELLES, priority 2018, dated 2023).

Columns and labels:
all 10 Fz genes = experiment: STF luciferase assay after co-transfection with all 10 Fz genes, no Gpr124/Reck; format: cell-based; conditions: in the absence of Gpr124/Reck
Procedure: Cells were plated into 96-well plates and transfected after 24 h in triplicate with Lipofectamine 2000 (Invitrogen, Carlsbad, Calif.). The amount of plasmid DNA transfected per well was optimized for each expression vector: Renilla luciferase (0.5 ng), Wnt (20 ng), Fz (5 ng), LRP (2.5 ng), Gpr124 (10 ng), Reck (10 ng) unless otherwise indicated. The total amount of DNA was adjusted to 100 ng per well with the empty pCS2 vector. Cells were harvested in passive lysis buffer (E1960, Promega, Wisconsin) and the activities of the Firefly and Renilla luciferases were measured sequentially using the Dual-Luciferase Reporter Assay system (E1960, Promega, Madison, Wis.) 48 h post-transfection.

zebrafish zygote = format: in vivo, Danio rerio; conditions: injection in zygote, 3 dpf larvae
Procedure: (§1) The following splice-blocking morpholino (MOs) (GeneTools, Eugene, OR) were injected into embryos at the one-cell stage: wnt7aa ([…], 6 ng) (SEQ ID NO.: 123). Synthetic mRNAs were transcribed from pCS2 plasmids after NotI digestion using the mMessage mMachine SP6 Kit (Ambion, Carlsbad, CA) and injected into one-cell stage zebrafish embryo. For Xenopus laevis microinjection, 15 pg of wnt7a or wnt7a^K190A or wnt7a^1-278 mRNA were injected into one ventral blastomere of the four-cell stage embryo.
(§2) zebrafish embryos were imaged with an LSM710 confocal microscope and images were processed in ImageJ. Images of zebrafish development phenotypes were taken on Leica M165 FC. Xenopus larvae were imaged with an Olympus SZX16.

wnt7aa morphants = experiment: Trunk DRG rescue in wnt7aa morphant zebrafish larvae; format: in vivo, Danio rerio; conditions: 100 pg mRNA injection, 72 hpf
Procedure: Zebrafish (Danio rerio) were raised and handled under standard conditions following the rules of the State of Belgium (protocol approval number: CEBEA-IBMM-2017-22:65). The following line was used: Tg(−17.0neurog1:EGFP)^w61 (McGraw et al., J. Neurosci 28(47):12558-69 (2008)).
as §1, §2

[1] = tested on: Wnt7aa^−/− mutant zebrafish; experiment: Transgenic endothelial expression (kdrl promoter) in Wnt7aa−/− zebrafish: hindbrain CtAs and GLUT1 staining; format: in vivo, Danio rerio; conditions: 60 hpf embryos
Source text: (A) Dorsal views of the cerebral vasculatures of 60 hpf WT or Wnt7aa^−/− Tg(kdrl:EGFP) embryos. In Wnt7a^−/− mutants, the intracerebral CtAs are lacking. Wnt7, Wnt7a^K190A or Wnt7a^1-278 were transiently expressed in the endothelium of Wnt7aa^−/− embryos under the control of an endothelial-specific kdrl (Vascular endothelial growth factor receptor kdr-like) promoter. The Wnt7 ligands were expressed as a biscistronic construct with BFP (Blue Fluorescent Protein) used as transgenesis marker. In contrast to uninjected embryos, Wnt7, Wnt7a^K190A or Wnt7a^1-278 restore hindbrain CtAs formation in Wnt7aa^−/− mutants as quantified in (B). (C) Anti-GLUT1 staining of the CtAs after transgenic expression of Wnt7, Wnt7a^K190A and Wnt7a^1-278 in 60 hpf Wnt7aa^−/− embryos. Transgenic expression was achieved as in (A).
Mouse Wnt7, Wnt7a^K190A and Wnt7a^1-278 were transiently expressed in the endothelium of Wnt7aa^−/− embryos under the control of an endothelial-specific kdrl (Vascular endothelial growth factor receptor kdr-like) promoter. The Wnt7 ligands were expressed as a biscistronic construct with BFP (Blue Fluorescent Protein) as transgenesis marker.

B1: Wnt7a^K190A: single-residue variant of full-length mWnt7a (precursor numbering); Gpr124/Reck-selective agonist (protein)
chain: LGASIICNKIPGLAPRQRAICQSRPDAIIVIGEGSQMGLDECQFQFRNGRWNCSALGERTVFGKELKVGSREAAFTYAIIAAGVAHAITAACTQGNLSDCGCDKEKQGQYHRDEGWKWGGCSADIRYGIGFAKVFVDAREIKQNARTLMNLHNNEAGRAILEENMKLECKCHGVSGSCTTKTCWTTLPQFRELGYVLKDKYNEAVHVEPVRASRNKRPTFLKIKKPLSYRKPMDTDLVYIEKSPNYCEEDPVTGSVGTQGRACNKTAPQASGCDLMCCGRGYNTHQYARVWQCNCKFHWCCYVKCNTCSERTEMYTCK
modifications: human Wnt7a variant K159A
- signaling through any Fz (all 10 Fz genes): failed to signal through any Fz
- mRNA dose well tolerated without posteriorizing or gross anatomical alterations (zebrafish zygote): ≤ 100 pg
- DRG rescue (wnt7aa morphants): significant DRG rescues
- blood-brain barrier (GLUT1 expression) ([1]; anti-GLUT1 staining of CtAs): restored blood-brain barrier
- brain angiogenesis / hindbrain CtAs formation ([1]; transient endothelial expression): triggered GPR124/RECK-dependent brain angiogenesis
